B1: humanized anti-human CCL20 antibody 36LK3/42HKK1 (antibody, human IgG1, kappa, V domains shown)
VH: QVQLVQSGAEVKKPGASVKVSCKASGYTFTSYWMHWVRQAPGQGLEWMGLIDPSDKYTNYNQKFKGRVTMTRDTSTSTVYMELSSLRSEDTAVYYCARGNYGVDYGMDYWGQGTLVTVSS
VL: DIQMTQSPSSLSASVGDRVTITCGASENIYGALNWYQRKPGKAPKLLIYGATNLADGVPSRFSGSGSGRDYTLTISSLQPEDFATYYCQNVLITPYTFGQGTKLEIKR
B2: humanized anti-human CCL20 antibody 36LK3/42HKK2 (antibody, human IgG1, kappa, V domains shown)
VH: QVQLVQSGAEVKKPGASVKVSCKASGYTFTSYWMHWVRQAPGQGLEWMGLIDPSDKYTNYNQKFKGRVTLTVDTSTSTVYMELSSLRSEDTAVYYCTRGNYGVDYGMDYWGQGTLVTVSS
VL: DIQMTQSPSSLSASVGDRVTITCGASENIYGALNWYQRKPGKAPKLLIYGATNLADGVPSRFSGSGSGRDYTLTISSLQPEDFATYYCQNVLITPYTFGQGTKLEIKR
B3: humanized anti-human CCL20 antibody 36LK3/42HKK3 (antibody, human IgG1, kappa, V domains shown)
VH: QVQLVQSGAEVKKPGASVKVSCKASGYTFTSYWMHWVRQAPGQGLEWMGLIDPSDKYTNYNQKFKGKATLTVDTSTSTAYMELSSLRSEDTAVYYCTRGNYGVDYGMDYWGQGTLVTVSS
VL: DIQMTQSPSSLSASVGDRVTITCGASENIYGALNWYQRKPGKAPKLLIYGATNLADGVPSRFSGSGSGRDYTLTISSLQPEDFATYYCQNVLITPYTFGQGTKLEIKR
B4: humanized anti-human CCL20 antibody 36LK3/36HC3 (antibody, human IgG1, kappa, V domains shown)
VH: QVQLVQSGAEVKKPGASVKVSCKASGYTFTNYWMHWVKQAPGQGLEWIGVIDPSDSYTTYNQKFKGKATMTRDTSTSTVYMELSSLRSEDTAVYYCTRGNYGVDYAMDYWGQGTSVTVSS
VL: DIQMTQSPSSLSASVGDRVTITCGASENIYGALNWYQRKPGKAPKLLIYGATNLADGVPSRFSGSGSGRDYTLTISSLQPEDFATYYCQNVLITPYTFGQGTKLEIKR
B5: humanized anti-human CCL20 antibody 36LC3/36HKK3 (antibody, human IgG1, kappa, V domains shown)
VH: QVQLVQSGAEVKKPGASVKVSCKASGYTFTNYWMHWVRQAPGQGLEWMGVIDPSDSYTTYNQKFKGKATLTVDTSTSTAYMELSSLRSEDTAVYYCTRGNYGVDYAMDYWGQGTLVTVSS
VL: DIQMTQSPSSLSASVGDRVTITCRASENIYGALNWYQQKPGKAPKLLIYGATNLADGVPSRFSGSGSGRQYSLTISSLQPEDFATYYCQNVLITPYTFGGGTKLEIKR
B6: humanized anti-human CCL20 antibody 36LK3/36HKK3 (antibody, human IgG1, kappa, V domains shown)
VH: QVQLVQSGAEVKKPGASVKVSCKASGYTFTNYWMHWVRQAPGQGLEWMGVIDPSDSYTTYNQKFKGKATLTVDTSTSTAYMELSSLRSEDTAVYYCTRGNYGVDYAMDYWGQGTLVTVSS
VL: DIQMTQSPSSLSASVGDRVTITCGASENIYGALNWYQRKPGKAPKLLIYGATNLADGVPSRFSGSGSGRDYTLTISSLQPEDFATYYCQNVLITPYTFGQGTKLEIKR
B7: 36LC3/36HC3 (antibody, human IgG1, kappa, V domains shown)
VH: QVQLVQSGAEVKKPGASVKVSCKASGYTFTNYWMHWVKQAPGQGLEWIGVIDPSDSYTTYNQKFKGKATMTRDTSTSTVYMELSSLRSEDTAVYYCTRGNYGVDYAMDYWGQGTSVTVSS
VL: DIQMTQSPSSLSASVGDRVTITCRASENIYGALNWYQQKPGKAPKLLIYGATNLADGVPSRFSGSGSGRQYSLTISSLQPEDFATYYCQNVLITPYTFGGGTKLEIKR

Experiments:
Assay in all cases: cell-based or functional assay
[1] = biological target: T1, recombinant human CCL20 (R&D Systems, #360-MP-025/CF) (human, UniProt P78556 27-96)
T1 sequence (P78556 other isoform, or with tags, fused parts or gaps limits assumed): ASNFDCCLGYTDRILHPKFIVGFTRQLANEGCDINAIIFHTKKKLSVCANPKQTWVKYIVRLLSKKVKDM

[2] = biological target: T1, recombinant human CCL20 (R&D Systems, …); remark: listed apart in the source
[3] = biological target: T1, recombinant human CCL20 (R&D Systems, …); remark: listed apart in the source

Binder | IC50 of chemotaxis inhibition [1] [nM] | IC90 of chemotaxis inhibition [2] [nM] | IC95 of chemotaxis inhibition [3] [nM] | IC50 of chemotaxis inhibition (block of heavy chains 36HKK1 to 36HKK3) [1] [nM] | IC50 of chemotaxis inhibition (block of heavy chains 36HKK3, 36HC2, 36HC3) [1] [nM]
B1 | 1.36 | 4.86 | 9.02 | – | –
B2 | 1.66 | 6.54 | 15.3 | – | –
B3 | 1.47 | 5.65 | 10.8 | – | –
B4 | 1.13 | 4.6 | 8.38 | – | –
B5 | 1.26 | 4.33 | 9.75 | – | –
B6 | – | – | – | 1.31 | 1.21
B7 | 1.33 | 6.34 | – | – | –

Reference: US20160046707A1 (EISAI R AND D MANAGEMENT, published 2016)
